Laboratory results taken from patent publication US10005838B2, “Milk fat globule epidermal growth factor 8 regulates fatty acid uptake” (REGENTS OF THE UNIVERSITY OF CALIFORNIA, priority 2013, dated 2018).
“Also recorded” adds a separate entry of the source.

Experiments:
[1] = Olive oil gavage, serum triglycerides; format: in vivo, mouse
Description: 6-8 week-old mice were fasted for 4 hours and then gavaged with 15 μL olive oil per gram body weight. Mice had access to water but not food for the remainder of the experiment. In the experiments in FIGS. 3C and 3F, 50 μg/kg body weight of recombinant protein was mixed into olive oil and administered immediately to mice by gavage. In blocking antibody experiments, integrins αv (clone RMV-7) and 05 (clone ALULA) were administered by gavaging mice with 100 μL water containing 0.5 μg antibody per gram body weight 30 minutes before olive oil gavage. Triglyceride content of serum was assayed using a commercially available kit (Sigma-Aldrich) and fatty acid concentrations were quantified by Wako (Rabot, S. et al., FASEB J 24, 4948-4959 (2010)).

AKT = assay: Western blot, AKT phosphorylation in HepG2 cells; format: cell-based, human
Description: (§1) Following tissue preparation and SDS-PAGE, membranes were incubated with a polyclonal antibody against Akt (Cell Signaling Technology), or Rictor (Cell Signaling); Anti-PGC1 alpha antibody (abcam); a monoclonal antibody against Phospho-Akt Ser473 (Cell Signaling), Phospho-Rictor Thr1135 (Cell Signaling), GAPDH (Cell Signaling), or Mfge8 (R&D Systems). For evaluation of total AKT and total Rictor, membranes that been blotted for phospho-AKT and phospho-Rictor were stripped and reprobed. Plasma membrane and post-plasma membrane fractions were isolated as previously described (Nishiumi, S. & Ashida, H., Biosci Biotechnol Biochem 71, 2343-2346 (2007)).

Rictor = assay: Western blot, Rictor phosphorylation in HepG2 cells; format: cell-based, human
Description: as §1

[2] = Blood glucose after IP insulin injection; format: in vivo, mouse; settings: mice, rMfge8 co-administered with insulin, antibodies as pretreatment 15 min before insulin
Description: Mice were fasted for 4 hours after which they were injected with 1.5 U/kg of insulin IP. Blood was collected from the tail vein immediately before injection and then again after 15, 30, 60, and 90 minutes for evaluation of blood glucose.
In experiments using RGE or Mfge8 construct: mice received 50 μg/kg body weight of recombinant protein. In experiments using function-blocking antibodies: 6-8 week-old mice were fasted for 4 hours and then each mouse received 0.5 μg antibody (integrins αv (clone RMV-7) and β5 (clone ALULA)) per gram body weight in total volume of 200 μl, 15 minutes later each mouse received an insulin injection (1.5 U/kg, intraperitoneal injection (IP)). Blood glucose levels were measured by sampling from the tail vein of mice from 15 minutes after insulin administered.

CD36 = assay: Plasma membrane CD36 expression in primary cells; format: cell-based, mouse; settings: primary Mfge8−/− adipocytes, hepatocytes, and enterocytes; to WT levels
Description: as §1

3T3-L1 adipocytes = assay: Glucose uptake assay (2-NBDG) in 3T3-L1 adipocytes; format: cell-based, mouse
Description: Uptake of […] by primary cells and cell lines was assessed using the fluorescent D-glucose analog 2-[N-(7-nitrobenz-2-oxa-1,3-diazol-4-yl)amino]-2-deoxy-D-glucose (2-NBDG) (Invitrogen). 2-NBDG has been successfully used as an alternative to 2-deoxyglucose in the measurement of glucose uptake in multiple cell types. Cells were plated in triplicate in 96-well plates at a concentration of 25,000 cells per well in 100 μl of DMEM/10% FCS. Plates were centrifuged at 1000 rpm for 4 minutes and incubated at 37° C. for 4-5 hours. Cells were then serum deprived for 1 hour before treatment with recombinant proteins for 20 minutes followed by the addition of 2-NBDG (100 μM) for 10 min at 37° C. in a humidified atmosphere of 5% CO2. Reaction was stopped by adding a twofold volume of ice-cold PBS and the wells were washed again with ice-cold PBS three times. The fluorescent signal before (autofluorescence) and after adding 100 μM 2-NBDG was measured using fluorescent plate reader at 37° C. (Molecular Device using the 485 nmex and 520 nmemiss filter set). The net increase in fluorescence was normalized to the lowest signal (0 cells/well). […]

FATP1 = assay: Plasma membrane FATP1 expression in primary adipocytes; format: cell-based, mouse; settings: Mfge8−/− adipocytes
Description: as §1

AKT at serine 473 = assay: Western blot, AKT phosphorylation in 3T3-L1 cells; format: cell-based, mouse
Description: as §1

B1: rMfge8: recombinant Milk Fat Globule Epidermal Growth Factor 8, an integrin ligand, expressed in High 5 cells (protein)
chain: ASGDFCDSSLCLNGGTCLTGQDNDIYCLCPEGFTGLVCNETERGPCSPNPCYNDAKCLVTLDTQRGDIFTEYICQCPVGYSGIHCETETNYYNLDGEYMFTTAVPNTAVPTPAPTPDLSNNLASRCSTQLGMEGGAIADSQISASSVYMGFMGLQRWGPELARLYRTGIVNAWTASNYDSKPWIQVNLLRKMRVSGVMTQGASRAGRAEYLKTFKVAYSLDGRKFEFIQDESGGDKEFLGNLDNNSLKVNMFNPTLEAQYIKLYPVSCHRGCTLRFELLGCELHGCSEPLGLKNNTIPDSQMSASSSYKTWNLRAFGWYPHLGRLDNQGKINAWTAQSNSAKEWLQVDLGTQRQVTGIITQGARDFGHIQYVASYKVAHSDDGVQWTVYEEQGSSKVFQGNLDNNSHKKNIFEKPFMARYVRVLPVSWHNRITLRLELLGC
[1]; Mfge8−/− mice, 50 μg/kg recombinant protein mixed into olive oil
  serum triglyceride levels after olive oil gavage: significantly raised
[1]; WT mice, recombinant protein mixed into olive oil
  WT serum triglyceride levels after olive oil gavage: significantly increased
AKT
  phosphorylation of AKT: induced
Rictor
  phosphorylation of Rictor: induced
[2]
  serum glucose levels after insulin injection as compared with insulin injection alone: significantly higher
CD36
  membrane expression of CD36: increased
3T3-L1 adipocytes; insulin 1 μM
  effect of insulin on glucose uptake: significantly inhibited
3T3-L1 adipocytes; without insulin
  baseline glucose uptake: no difference; also recorded: no effect
FATP1
  membrane expression of FATP1: increased
AKT at serine 473
  phosphorylation of AKT at serine 473: induced
